Experimental data taken from patent publication US20240024480A1 (MIE UNIVERSITY, published 2024).

Molecular target: HLA-A24 PRAMEp301-309 pMHC complex (human)
Assay: SPR, Biacore X100, Biotin CAPture Kit; A24 PRAMEp301-309 immobilised as ligand, scFv-pp at 31.25-500 nM, global fit

- Kd: 5.3 nM
B1: #98 scFvCL-pp (scFv)
chain: QVQLVQSGAEVKKPGSSVKVSCKASGGTFSSYAISWVRQAPGQGLEWMGGIIPIFGTANYAQKFQGRVTITADESTGTAYMELSSLRSEDTAVYYCARHHSNYYYYGMDVWGQGTTVTVSRSYELTQPLSVSVALGQTARITCGGNNIGSKNVHWYQQKPGQAPVLVIYRDSNRPSGIPERFSGSNSGNTATLTISRAQAGDEADYYCQVWDSSHVFGTGTKVTVL
